We go through 2 molecules from paper PMC8890701 (Science Advances, 2022).

Experiment [1] concerns the target S. pneumoniae LicB (S. pneumoniae). As to the kind of experiment: cryo-EM structure.
In another experiment the target is T1, S. pneumoniae LicB (Streptococcus pneumoniae TIGR4 (ATCC …)).
T1 chain: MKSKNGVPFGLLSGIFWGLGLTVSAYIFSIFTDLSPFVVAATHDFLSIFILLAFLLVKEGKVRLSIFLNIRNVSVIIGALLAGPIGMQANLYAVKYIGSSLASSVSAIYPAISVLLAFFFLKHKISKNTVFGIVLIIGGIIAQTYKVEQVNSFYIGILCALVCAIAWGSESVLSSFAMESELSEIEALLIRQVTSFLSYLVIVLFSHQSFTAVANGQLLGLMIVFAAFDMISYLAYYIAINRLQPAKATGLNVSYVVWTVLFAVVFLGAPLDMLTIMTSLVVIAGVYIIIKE
As to the kind of experiment: cryo-EM structure.

In experiment [1], S. pneumoniae LicB (natural protein) registered a stoichiometry N of 2.

B1: sybody C (VHH)
VHH: QVQLVESGGGSVQAGGSLRLSCAASGTIHAIGYLGWFRQAPGKEREGVAALTTYDGWTYYADSVKGRFTVSLDNAKNTVYLQMNSLKPEDTALYYCAAADDGWMFPLYHNHYEYWGQGTQVTVSA
As for B1, the binding result with S. pneumoniae LicB was “binds”.
